Test results as given in patent US20250073355A1, “CD44-BINDING PEPTIDE REAGENTS AND METHODS” (THE REGENTS OF THE UNIVERSITY OF MICHIGAN, priority 2021, published 2025).
One block for each molecule: values may come before it. No end group written: not given here. IRDye800 = fluorophore linked at C-terminus via GGGSC linker

Tests used:
[1] = target: T1, CD44 (Cluster of differentiation 44) (human, UniProt P16070 21-742); assay: confocal microscopy, SK-Hep1 control siRNA against CD44 knockdown cells
T1 construct: whole, on cells; The target is tied to CD44 by siRNA knockdown in SK-Hep1 cells; also called CD44 on human SK-Hep1 HCC cells

[2] = target: T1, CD44 (Cluster of differentiation 44); assay: confocal microscopy on SK-Hep1 cells
CD44 = target: T2, CD44 (Homo sapiens, UniProt P16070); assay: Competitive inhibition with unlabeled peptide on SK-Hep1 cells; format: cell-based; conditions: competition
T2 construct: endogenous in cells; host or cells: SK-Hep1 (human HCC cells)
Procedure: (§1) Specific peptide binding to CD44 was further validated using competitive inhibition by adding unlabeled peptide. Approximately […] SK-Hep1 cells were grown to ˜70% confluence on cover glass in triplicate. Unlabeled peptides at concentrations of 0, 10, 20, 40, 80, and 100 μM were incubated with the cells for 30 min at 4° C. The cells were washed with PBS and incubated with 5 μM of the target peptides for another 30 min at 4° C. The cells were washed and fixed with 4% PFA for 8 min. The cells were washed with PBS and mounted with ProLong Gold reagent containing DAPI (Invitrogen).

[3] = target: T1, CD44 (Cluster of differentiation 44); assay: flow cytometry on SK-Hep1 cells, labeled peptide 0-200 nM, 4 °C, 1 hour
Procedure: The apparent dissociation constant kd for peptide binding to cells was measured to assess the binding affinity [31]. IRDye800-labeled target peptides were serially diluted in PBS at concentrations of 0, 10, 20, 40, 80, 100, and 200 nM. ˜10⁵ SK-Hep1 cells were incubated with the peptides at 4° C. for 1 hour, washed with cold PBS, and the mean fluorescence intensities were measured using flow cytometry. The equilibrium dissociation constant kd=1/kₐ was calculated by performing a least squares fit of the data to the non-linear equation l=(l₀+lₘₐₓkₐ [X])/(l₀+kₐ[X]). l₀ and lₘₐₓ are the initial and maximum fluorescence intensities, corresponding to no peptide and at saturation, respectively, and [X] represents the concentration of the bound peptide. Prism 5.0 software (GraphPad Inc) was used to calculate kd.

[4] = target: T1, CD44 (Cluster of differentiation 44); assay: competition against 5 µM WKG*-IRDye800 on SK-Hep1 cells; first of five concentrations of unlabeled peptide (series 0, 10, 20, 40, 80, 100 µM; which five not stated)
Procedure: as §1

[5] = target: T1, CD44 (Cluster of differentiation 44); assay: competition against 5 µM WKG*-IRDye800 on SK-Hep1 cells; fifth of five concentrations of unlabeled peptide
Procedure: as §1

[6] = target: T1, CD44 (Cluster of differentiation 44); assay: competition against 5 µM WKG*-IRDye800 on SK-Hep1 cells; second of five concentrations of unlabeled peptide
Procedure: as §1

[7] = target: T1, CD44 (Cluster of differentiation 44); assay: competition against 5 µM WKG*-IRDye800 on SK-Hep1 cells; third of five concentrations of unlabeled peptide
Procedure: as §1

[8] = target: T1, CD44 (Cluster of differentiation 44); assay: competition against 5 µM WKG*-IRDye800 on SK-Hep1 cells; fourth of five concentrations of unlabeled peptide
Procedure: as §1

T1 sequence (P16070 21-742): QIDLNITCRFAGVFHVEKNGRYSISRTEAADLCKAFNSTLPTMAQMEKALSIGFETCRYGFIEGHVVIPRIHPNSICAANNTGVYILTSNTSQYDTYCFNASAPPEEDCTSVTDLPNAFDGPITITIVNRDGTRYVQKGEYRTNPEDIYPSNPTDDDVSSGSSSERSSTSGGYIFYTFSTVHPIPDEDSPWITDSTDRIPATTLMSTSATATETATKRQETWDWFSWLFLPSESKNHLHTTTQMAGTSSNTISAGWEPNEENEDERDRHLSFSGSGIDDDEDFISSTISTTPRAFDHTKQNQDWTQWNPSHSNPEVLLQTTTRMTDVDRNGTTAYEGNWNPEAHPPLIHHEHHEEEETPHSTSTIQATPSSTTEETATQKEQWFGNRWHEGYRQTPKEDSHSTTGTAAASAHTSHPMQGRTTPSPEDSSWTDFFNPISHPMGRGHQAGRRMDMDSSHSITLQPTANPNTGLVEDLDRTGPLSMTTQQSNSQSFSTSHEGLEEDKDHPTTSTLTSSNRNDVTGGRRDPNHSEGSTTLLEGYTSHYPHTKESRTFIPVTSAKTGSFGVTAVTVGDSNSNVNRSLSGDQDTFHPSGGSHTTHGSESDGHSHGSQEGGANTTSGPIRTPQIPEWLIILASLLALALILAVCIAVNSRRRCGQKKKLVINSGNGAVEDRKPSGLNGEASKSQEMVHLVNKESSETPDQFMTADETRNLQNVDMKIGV
T2 sequence (P16070 21-742): as above

fold change in fluorescence intensity, siCL relative to siCD441 [1]: 4.1 fold | fold change in fluorescence intensity, siCL relative to siCD442 [1]: 3.3 fold | fold change in fluorescence intensity, siCL relative to siCD443 [1]: 3.1 fold | fold change in fluorescence intensity relative to WYK*-IRDye800 (control) [2]: 5.61 fold
Molecule: rabbit anti-CD44 antibody (EPR18668, Abcam)

change of WKG*-IRDye800 fluorescence intensities with increasing concentrations of unlabeled peptide (CD44): decreased significantly
Molecule: WKGWSYLWTQQA [WKG*]

Kd [3]: 43 nM
B1: WKG*-IRDye800 (peptide)
peptide: WKGWSYLWTQQAGGGSC-IRDye800
notes: Synthetic L-amino acid peptide made by Fmoc solid-phase synthesis on rink amide MBHA resin; also called CD44-directed peptide

fold change of fluorescence intensity relative to an equal concentration of WYK* [4]: 1.02 fold | fold change of fluorescence intensity relative to an equal concentration of WYK* [5]: 0.1 fold | fold change of fluorescence intensity relative to an equal concentration of WYK* [6]: 0.61 fold | fold change of fluorescence intensity relative to an equal concentration of WYK* [7]: 0.36 fold | fold change of fluorescence intensity relative to an equal concentration of WYK* [8]: 0.12 fold
B2: unlabeled WKG* (peptide)
peptide: WKGWSYLWTQQA
modifications: also: may carry GGGSC linker and C-terminal amide
notes: The m/z of 1913.87 printed for WKG* fits the 12-mer plus GGGSC with a C-terminal amide; also called unlabeled peptide
